Values of other authors, collected in PMC3386954.
pKd: −log10 of the molar value.

Target: Capillary morphogenesis gene 2 protein (Homo sapiens) (UniProt P58335)

Q: With “Protective antigen (from UniProt P13423)” as the substance, how does the pKd read?
A: Its pKd is less than 9.77.
